What was measured:
Assay in all cases: EMSA
Conditions in all cases: apparent, Hill fit; EMSA: 20 mM Tris pH 8.0, 250 mM KCl, 1 h at 4 °C, 3% glycerol, 0.5% agarose in 0.5x TBE; 25 nM FAM-DNA for Kd (protein as oligomer), 0.3 uM DNA for display
[1] = biological target: MAJIN Core;TERB2 C (human;human) (UniProt Q3KP22+Q8NHR7)
[2] = biological target: MAJIN Core;TERB2 full length;TERB1 TRFB (human;human;human) (UniProt Q3KP22+Q8NHR7+Q8NA31)
[3] = biological target: MAJIN dTM;TERB2 C (human;human) (UniProt Q3KP22+Q8NHR7)
[4] = biological target: MAJIN dTM;TERB2 C-Tr (human;human) (UniProt Q3KP22+Q8NHR7)
MAJIN dTM;TERB2 C-Tr (human;human), sequence (Q3KP22 whole entry, chain 1 of 2): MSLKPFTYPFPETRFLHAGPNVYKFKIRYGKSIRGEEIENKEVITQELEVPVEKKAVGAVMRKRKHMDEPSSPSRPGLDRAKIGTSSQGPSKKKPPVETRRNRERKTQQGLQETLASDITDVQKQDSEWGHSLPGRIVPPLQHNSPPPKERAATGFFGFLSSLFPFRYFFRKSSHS
MAJIN dTM;TERB2 C-Tr (human;human), sequence (Q8NHR7 168-207, chain 2 of 2): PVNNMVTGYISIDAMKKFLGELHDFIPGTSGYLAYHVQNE

MAJIN Core;TERB2 C (human;human), sequence (Q3KP22 whole entry, chain 1 of 2): as the sequence (Q3KP22 whole entry, chain 1 of 2) above
MAJIN Core;TERB2 C (human;human), sequence (Q8NHR7 168-220, chain 2 of 2): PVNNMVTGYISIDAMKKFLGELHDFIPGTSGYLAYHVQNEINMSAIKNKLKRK
MAJIN dTM;TERB2 C (human;human), sequence (Q3KP22 whole entry, chain 1 of 2): as the sequence (Q3KP22 whole entry, chain 1 of 2) above
MAJIN dTM;TERB2 C (human;human), sequence (Q8NHR7 168-220, chain 2 of 2): as the sequence (Q8NHR7 168-220, chain 2 of 2) above
MAJIN Core;TERB2 full length;TERB1 TRFB (human;human;human), sequence (Q3KP22 whole entry, chain 1 of 3): as the sequence (Q3KP22 whole entry, chain 1 of 2) above
MAJIN Core;TERB2 full length;TERB1 TRFB (human;human;human), sequence (Q8NHR7 whole entry, chain 2 of 3): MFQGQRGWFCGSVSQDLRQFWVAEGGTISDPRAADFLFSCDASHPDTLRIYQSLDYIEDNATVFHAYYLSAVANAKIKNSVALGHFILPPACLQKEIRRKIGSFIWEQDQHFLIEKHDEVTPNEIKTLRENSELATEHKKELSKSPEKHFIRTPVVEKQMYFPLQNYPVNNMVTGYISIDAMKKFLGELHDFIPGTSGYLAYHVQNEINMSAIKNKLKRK
MAJIN Core;TERB2 full length;TERB1 TRFB (human;human;human), sequence (Q8NA31 561-658, chain 3 of 3): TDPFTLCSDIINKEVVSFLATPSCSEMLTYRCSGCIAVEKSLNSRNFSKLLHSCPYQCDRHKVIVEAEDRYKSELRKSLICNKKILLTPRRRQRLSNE

“AATTCTCATTTTACTTACCGGACGCTATTAGCAGTGGCAGATTGTACTGAGAGTGCACCATATGCGGTGTGAAATACCGCACAGATGCGT [Random ssDNA (90 nt)]” was tested, and the Kd [1] was 900 nM.

With “TTAGGGTTAGGGTTAGGGTTAGGGTTAGGGTTAGGGTTAGGGTTAGGGTTAGGGCGACGACCCTAACCCTAACCCTAACCCTAACCCTAACCCTAACCCTAACCCTAACCCTAA [Telomeric hairpin DNA (54 bp)]” the Kd [1] was 610 nM.

Work on “TTCCAGGGTTCCATGGAGATAAAGGTCAATAAATTAGAGTTAGAACTAGAAAGTGCCAAACAGAAATTTGGAGAAATCACAGACACCTATCAGAAAGAAATTGAGGACAAAAAGATATCAGAATAATAACCATGGATATCGAATT (double strand) [FAM random dsDNA (145 bp)]” yielded a Kd [2] of 460 nM, a Kd [3] of 120 nM and a Kd [1] of 550 nM. For the same sequence, the Kd [4] was 200 nM.

For “TTTTTTTTTTTTTTTTTTTTTTTTTTTTTTTTTTTTTTTTTTTTTTTTTTTTTTTTTTTTTTTTTTTTTTTTTTTTTTTTTTTTTTTTTTTTTTTTTTTT [Poly(dT) (100 nt)]”, the Kd [1] was 510 nM.
